Reference: article PMC9530591 (eBioMedicine, 2022)

B1: 5J8 (antibody, V domains shown)
VH: EVQLVESGPGLVKPSDILSLTCAVSGYSISSNYYWGWIRQPPGKGLEWIGSIYHSGSTYYKPSLESRLGISVDTSKNQFSLKLSFVSAADTAVYYCARHVRSGYPDTAYYFDKWGQGTLVTVSS
VL: SYVLTQPPSVSVAPGETARISCGGNNIGTKVLHWYQQTPGQAPVLVVYDDSDRPSGIPERFSGSNSGNTATLTISRVEVGDEADYYCQVWDISTDQAVFGGGTKLTVL
B2: 32D6 (antibody, V domains shown)
VH: QVQLQESGPGLVKPSETLSLTCTVSGGSVNTGSYYWSWIRQPPGKGLEWIAYSSVSGTSNYNPSLKSRVTLTVDTSKNQFSLSVRSVTAADTAVYFCARLNYDILTGYYFFDFWGQGTLVIVSS
VL: QVELTQSPSASASLGTSVKLTCTLSSGHSTYAIAWHQQRPGKGPRYLMNLSSGGRHTRGDGIPDRFSGSSSGADRYLIISSLQSEDEADYYCQTWDAGMVFGGGTKLTVL

Molecular target: HA1-trimer (influenza A virus H1N1 …)
Assay: SPR
Details: both partners purified

Row | Binder | Kd [pM]
1 | B1 | 53.1
2 | B2 | 44.5
